What was measured:
[1] = test system: PRC2 complex; assay: Co-immunoprecipitation with PRC2 complex (EZH2) in transfected HEK293T cells; format: binding; settings: anti-FLAG co-IP, HEK293T extracts; EZH2 as PRC2 marker
Experimental: (§1) HEK293T cells were transfected with vectors encoding FLAG-BCL11B ([54]), FLAG-BCL11B p.R3S or Myc-SIRT1 using the calcium phosphate method. Transfected cells were harvested in ice-cold phosphate-buffered saline (PBS) 48 h after transfection. Cell suspensions were centrifuged at 2000g for 5 min, followed by lysis under native conditions in buffer containing 20 mM HEPES, pH 7.4, 250 mM NaCl, 2 mM EDTA, 10% glycerol, 0.5% NP-40, 0.1 mM PMSF, 1 μg/mL pepstatin A, 5 μg/mL leupeptin, 10 μM E64, 25 mM NaF, 5 mM […] and 10 mMN-ethylmaleimide. Cells were incubated on ice for 30 min with vortexing every 5 min, followed by sonication on ice to complete lysis and shear DNA. The lysate was cleared by centrifugation, and BCL11B was immunoprecipitated from native extracts with anti-FLAG antibody (Sigma F4042), as previously described ([54]). […] Fluorescent signal was recorded on an Odyssey dual-channel near-infrared imager (LI-COR) and analysed with manufacturer-supplied software (Image Studio, version 2.1).

[2] = test system: NuRD complex; assay: Co-immunoprecipitation with NuRD complex (MTA2, HDAC2) in transfected HEK293T cells; format: binding; settings: anti-FLAG co-IP, HEK293T extracts; MTA2 and HDAC2 as NuRD markers
Experimental: as §1

[3] = test system: SIRT1; assay: Co-immunoprecipitation with SIRT1 in transfected HEK293T cells; format: binding; settings: anti-FLAG co-IP, HEK293T extracts; Myc-SIRT1
Experimental: as §1

[4] = test system: HEK293T cells; assay: Immunocytochemistry (expression and nuclear localization) in HEK293T cells; format: cell-based; settings: 48 h after transfection, anti-BCL11B and DAPI
Experimental: HEK293T cells were grown on 0.1% gelatin-coated glass coverslips in 24-well plates seeded at 25 000 cells/well for 24 h prior to transfection with vectors encoding FLAG-BCL11B or FLAG-BCL11B p.R3S. Forty-eight hours after transfection, cells were washed twice with PBS, fixed in 4% paraformaldehyde in PBS for 10 min at room temperature, permeabilized with 0.3% Triton X-100/PBS for 10 min and washed twice with 0.1% Tween/PBS. The fixed and permeabilized cells were then prepared for immunocytochemistry by blocking for 1 h in 10% foetal bovine serum (FBS) in PBS, incubating for 4 h with rat anti-BCL11B monoclonal antibody (Abcam ab18465, 0.25 μg/ml) in 10% FBS/PBS, then incubating for 1.5 h with an anti-rat Cy3-conjugated secondary antibody (Jackson ImmunoResearch Laboratories, 1:500 dilution), followed by a final incubation in 10 μg/ml DAPI in PBS for 10 min. Cells were washed twice with 0.1% Tween/PBS between each immunocytochemistry step, and all incubations were conducted at room temperature. Cells were then washed twice with deionized water, followed by step-wise dehydration with 70% ethanol, 100% ethanol and xylene. Coverslips were then mounted on glass slides with DPX (VWR), dried overnight and stored at 4°C in the dark. Fluoromicrographs were obtained using a Zeiss microscope with appropriate filters and a 63× oil-immersion objective. […]

| Molecule | interaction with PRC2 complex [1] | interaction with NuRD complex [2] | interaction with SIRT1 [3] | expression and nuclear localization [4] |
| --- | --- | --- | --- | --- |
| BCL11B: FLAG-BCL11B, wild-type protein expressed in transfected HEK293T cells (protein, left off: FLAG, end not stated, kept, FLAG-BCL11B, wild-type protein expressed in transfected HEK293T cells) MSRRKQGNPQHLSQRELITPEADHVEAAILEEDEGLEIEEPSGLGLMVGGPDPDLLTCGQCQMNFPLGDILVFIEHKRKQCGGSLGACYDKALDKDSPPPSSRSELRKVSEPVEIGIQVTPDEDDHLLSPTKGICPKQENIAGPCRPAQLPAVAPIAASSHPHSSVITSPLRALGALPPCLPLPCCSARPVSGDGTQGEGQTEAPFGCQCQLSGKDEPSSYICTTCKQPFNSAWFLLQHAQNTHGFRIYLEPGPASSSLTPRLTIPPPLGPEAVAQSPLMNFLGDSNPFNLLRMTGPILRDHPGFGEGRLPGTPPLFSPPPRHHLDPHRLSAEEMGLVAQHPSAFDRVMRLNPMAIDSPAMDFSRRLRELAGNSSTPPPVSPGRGNPMHRLLNPFQPSPKSPFLSTPPLPPMPPGGTPPPQPPAKSKSCEFCGKTFKFQSNLIVHRRSHTGEKPYKCQLCDHACSQASKLKRHMKTHMHKAGSLAGRSDDGLSAASSPEPGTSELAGEGLKAADGDFRHHESDPSLGHEPEEEDEEEEEEEEELLLENESRPESSFSMDSELSRNRENGGGGVPGVPGAGGGAAKALADEKALVLGKVMENVGLGALPQYGELLADKQKRGAFLKRAAGGGDAGDDDDAGGCGDAGAGGAVNGRGGGFAPGTEPFPGLFPRKPAPLPSPGLNSAAKRIKVEKDLELPPAALIPSENVYSQWLVGYAASRHFMKDPFLGFTDARQSPFATSSEHSSENGSLRFSTPPGDLLDGGLSGRSGTASGGSTPHLGGPGPGRPSSKEGRRSDTCEYCGKVFKNCSNLTVHRRSHTGERPYKCELCNYACAQSSKLTRHMKTHGQIGKEVYRCDICQMPFSVYSTLEKHMKKWHGEHLLTNDVKIEQAERS | demonstrated herein |  |  |  |
| BCL11B p.R3S: FLAG-BCL11B p.R3S, patient-derived mutant protein expressed in transfected HEK293T cells (protein, UniProt Q9C0K0 1-894, looked up, variant R3S, FLAG tag, FLAG-BCL11B p.R3S, patient-derived mutant protein expressed in transfected HEK293T cells) B-cell lymphoma/leukemia 11B: MSSRKQGNPQHLSQRELITPEADHVEAAILEEDEGLEIEEPSGLGLMVGGPDPDLLTCGQCQMNFPLGDILVFIEHKRKQCGGSLGACYDKALDKDSPPPSSRSELRKVSEPVEIGIQVTPDEDDHLLSPTKGICPKQENIAGPCRPAQLPAVAPIAASSHPHSSVITSPLRALGALPPCLPLPCCSARPVSGDGTQGEGQTEAPFGCQCQLSGKDEPSSYICTTCKQPFNSAWFLLQHAQNTHGFRIYLEPGPASSSLTPRLTIPPPLGPEAVAQSPLMNFLGDSNPFNLLRMTGPILRDHPGFGEGRLPGTPPLFSPPPRHHLDPHRLSAEEMGLVAQHPSAFDRVMRLNPMAIDSPAMDFSRRLRELAGNSSTPPPVSPGRGNPMHRLLNPFQPSPKSPFLSTPPLPPMPPGGTPPPQPPAKSKSCEFCGKTFKFQSNLIVHRRSHTGEKPYKCQLCDHACSQASKLKRHMKTHMHKAGSLAGRSDDGLSAASSPEPGTSELAGEGLKAADGDFRHHESDPSLGHEPEEEDEEEEEEEEELLLENESRPESSFSMDSELSRNRENGGGGVPGVPGAGGGAAKALADEKALVLGKVMENVGLGALPQYGELLADKQKRGAFLKRAAGGGDAGDDDDAGGCGDAGAGGAVNGRGGGFAPGTEPFPGLFPRKPAPLPSPGLNSAAKRIKVEKDLELPPAALIPSENVYSQWLVGYAASRHFMKDPFLGFTDARQSPFATSSEHSSENGSLRFSTPPGDLLDGGLSGRSGTASGGSTPHLGGPGPGRPSSKEGRRSDTCEYCGKVFKNCSNLTVHRRSHTGERPYKCELCNYACAQSSKLTRHMKTHGQIGKEVYRCDICQMPFSVYSTLEKHMKKWHGEHLLTNDVKIEQAERS | does not interact with the NuRD or PRC2 complexes | does not interact with the NuRD or PRC2 complexes | did not alter interaction of the protein with the class III histone deacetylase SIRT1 | well expressed and localized in the nucleus in a manner that was indistinguishable from wild-type protein |
